Read-outs that look alike come from different tables or passages of the source.
Assays:
[1] = biological target: human CLDN18.2 (human), P56856; assay: cell-based or functional assay
[2] = biological target: human CLDN18.2 (human) (UniProt P56856); assay: cell ELISA, hCLDN18.2+ cells
[3] = biological target: mice CLDN18.2 (mice) (UniProt P56857); assay: cell ELISA, mCLDN18.2+ cells
[4] = biological target: human CLDN18.2 (human) (UniProt P56856); assay: flow cytometry, CF633 labeled antibody 1 µg/ml, hCLDN18.2+ cells
[5] = biological target: human CLDN18.2 (human) (UniProt P56856); assay: cell-based or functional assay
[6] = biological target: human CLDN18.2 (human) (UniProt P56856); assay: flow cytometry, CF633, 1 µg/ml
[7] = biological target: human CLDN18.2 (human) (UniProt P56856); assay: KinExA, antibody titrated with hCLDN18.2+ cells
[8] = biological target: human CLDN18.2 (human) (UniProt P56856); assay: cell ELISA, hCLDN18.2+ cells; remark: listed apart in the source
[9] = biological target: human CLDN18.2 (human) (UniProt P56856); assay: flow cytometry, CF633 labeled antibody 10 µg/ml, hCLDN18.2+ cells
[10] = biological target: human CLDN18.2 (human) (UniProt P56856); assay: flow cytometry, CF488, 10 µg/ml
[11] = biological target: human CLDN18.2 (human) (UniProt P56856); assay: flow cytometry, CF488 labeled antibody 10 µg/ml, hCLDN18.2+ cells
[12] = biological target: human CLDN18.2 (human) (UniProt P56856); assay: flow cytometry, CF633, 10 µg/ml
[13] = biological target: human CLDN18.2 (human) (UniProt P56856); assay: flow cytometry, CF488 labeled antibody 1 µg/ml, hCLDN18.2+ cells

B1: Ab51 (antibody, IgG1, V domains shown)
VL: DIVMTQSPDSLAVSLGERATINCKSSQSLLNTGNNKNYLAWYQQKPGQPPKLLIYWASTRESGVPDRFSGSGSGTDFTLTISSLQAEDVAVYYCQNDYFYPFTFGQGTKLEIK
VH: QVQLVQSGAEVKKPGSSVKVSCKASGYAFSNYLIEWVRQAPGQGLEWMGLINPGSGGTNYNEKFKGRVTITADESTSTAYMELSSLRSEDTAVYYCARVYYGNTFAYWGQGTLVTVSS
- CDC activity, EC50 [1]: 2.12 µg/mL

B2: Ab32 (antibody, V domains shown)
VH: QVQLVQSGAEVKKPGSSVKVSCKASGYAFSNYLIEWVRQAPGQGLEWMGLINPGSGGTNYNEKFKGKVTITADKSTSTAYMELSSLRSEDTAVYYCARVYYGNTFAYWGQGTLVTVSS
VL: DIVMTQSPDSLAVSLGERATINCKSSQSLLNSGNNKNYLAWYQQKPGQPPKLLIYWASTRESGVPDRFSGSGSGTDFTLTISSLQAEDVAVYYCQNDYFYPFTFGQGTKLEIK
- EC50 [2]: 0.197 nM
- Emax [2]: 1.41

B3: Ab28 (antibody, V domains shown)
VH: QVQLVQSGAEVKKPGSSVKVSCKASGYAFSNYLIEWVRQAPGQGLEWMGLINPGSGGTNYNEKFKGKVTITADKSTSTAYMELSSLRSEDTAVYYCARVYYGNSFAYWGQGTLVTVSS
VL: DIVMTQSPDSLAVSLGERATINCKSSQSLLNTGNNKNYLAWYQQKPGQPPKLLIYWASTRESGVPDRFSGSGSGTDFTLTISSLQAEDVAVYYCQNDYFYPFTFGQGTKLEIK
- EC50 [2]: 0.154 nM
- Emax [2]: 1.56

B4: Ab34 (antibody, V domains shown)
VH: QVQLVQSGAEVKKPGSSVKVSCKASGYAFSNYLIEWVRQAPGQGLEWMGLINPGSGGTNYNEKFKGKVTITADKSTSTAYMELSSLRSEDTAVYYCARVYYGNTFAYWGQGTLVTVSS
VL: DIVMTQSPDSLAVSLGERATISCKSSQSLLNSGNNKNYLAWYQQKPGQPPKLLIYWASTRESGVPDRFSGSGSGTDFTLTISSLQAEDVAVYYCQNDYFYPFTFGQGTKLEIK
- EC50 [2]: 0.151 nM
- Emax [2]: 1.42

B5: Ab21 (antibody, V domains shown)
VH: QVQLVQSGAEVKKPGSSVKVSCKASGYAFSNYLIEWVRQAPGQGLEWMGLINPGSGGTNYNEKFKGKVTITADKSTSTAYMELSSLRSEDTAVYYCARVYYGTSFAYWGQGTLVTVSS
VL: DIVMTQSPDSLAVSLGERATINCKSSQSLLTSGNNKNYLAWYQQKPGQPPKLLIYWASTRESGVPDRFSGSGSGTDFTLTISSLQAEDVAVYYCQNDYFYPFTFGQGTKLEIK
- EC50 [2]: > 16 nM
- Emax [2]: 0.145

B6: Ab30 (antibody, V domains shown)
VH: QVQLVQSGAEVKKPGSSVKVSCKASGYAFSNYLIEWVRQAPGQGLEWMGLINPGSGGTNYNEKFKGKVTITADKSTSTAYMELSSLRSEDTAVYYCARVYYGNTFAYWGQGTLVTVSS
VL: DIVMTQSPDSLAVSLGERATISCKSSQSLLNSGNQKNYLTWYQQKPGQPPKLLIYWASTRESGVPDRFSGSGSGTDFTLTISSLQAEDVAVYYCQNDYFYPFTFGQGTKLEIK
- EC50 [2]: 11.4 nM
- Emax [2]: 0.67

B7: Ab23 (antibody, V domains shown)
VH: QVQLVQSGAEVKKPGSSVKVSCKASGYAFSNYLIEWVRQAPGQGLEWMGLINPGSGGTNYNEKFKGKVTITADKSTSTAYMELSSLRSEDTAVYYCARVYYGTSFAYWGQGTLVTVSS
VL: DIVMTQSPDSLAVSLGERATINCKSSQSLLNTGNNKNYLAWYQQKPGQPPKLLIYWASTRESGVPDRFSGSGSGTDFTLTISSLQAEDVAVYYCQNDYFYPFTFGQGTKLEIK
- EC50 [2]: > 40 nM
- Emax [2]: 0.147

B8: Ab22 (antibody, V domains shown)
VH: QVQLVQSGAEVKKPGSSVKVSCKASGYAFSNYLIEWVRQAPGQGLEWMGLINPGSGGTNYNEKFKGKVTITADKSTSTAYMELSSLRSEDTAVYYCARVYYGNTFAYWGQGTLVTVSS
VL: DIVMTQSPDSLAVSLGERATINCKSSQSLLTSGNNKNYLAWYQQKPGQPPKLLIYWASTRESGVPDRFSGSGSGTDFTLTISSLQAEDVAVYYCQNDYFYPFTFGQGTKLEIK
- EC50 [2]: 1.37 nM
- Emax [2]: 0.827

B9: Ab51 (antibody, IgG1, V domains shown)
VH: QVQLVQSGAEVKKPGSSVKVSCKASGYAFSNYLIEWVRQAPGQGLEWMGLINPGSGGTNYNEKFKGRVTITADESTSTAYMELSSLRSEDTAVYYCARVYYGNTFAYWGQGTLVTVSS
VL: DIVMTQSPDSLAVSLGERATINCKSSQSLLNTGNNKNYLAWYQQKPGQPPKLLIYWASTRESGVPDRFSGSGSGTDFTLTISSLQAEDVAVYYCQNDYFYPFTFGQGTKLEIK
- EC50 [3]: 0.474 nM
- Emax [3]: 1.91

B10: Ref (control anti-human CLDN18.2 antibody) (antibody, INN chains, looked up, V domains shown)
VH: QVQLQQPGAELVRPGASVKLSCKASGYTFTSYWINWVKQRPGQGLEWIGNIYPSDSYTNYNQKFKDKATLTVDKSSSTAYMQLSSPTSEDSAVYYCTRSWRGNSFDYWGQGTTLTVSS
VL: DIVMTQSPSSLTVTAGEKVTMSCKSSQSLLNSGNQKNYLTWYQQKPGQPPKLLIYWASTRESGVPDRFTGSGSGTDFTLTISSVQAEDLAVYYCQNDYSYPFTFGSGTKLEIKR
- Binding value (FACS fluorescence intensity) [4]: 62.5
- ADCC activity, EC50 [5]: 1.39 µg/mL
- CDC activity, EC50 [5]: 2.31 µg/mL
- inducing the apoptosis of tumor cells at 10 µg/ml (LDH release) [5]: 15.3%
- inducing the apoptosis of tumor cells at 30 µg/ml (LDH release) [5]: 19.6%
- inhibition rate % of proliferation, 1 µg/ml (CCK-8) [5]: 2.34%
- inhibition rate % of proliferation, 10 µg/ml (CCK-8) [5]: 2.94%
- inhibition rate % of proliferation, 30 µg/ml (CCK-8) [5]: 3.9%
- binding value, ratio to the background [6]: 2.7
- Kd [7]: 0.144 nM
- EC50 [8]: 0.345 nM
- Emax [8]: 0.98
- Binding value (FACS fluorescence intensity) [9]: 198
- EC50 [3]: 1.04 nM
- Emax [3]: 1
- binding value, times higher than the background [10]: 4 times
- Binding value (FACS fluorescence intensity) [11]: 17900
- binding value, times of the background [12]: 8.5 times
- EC50 [2]: 0.249 nM
- Emax [2]: 1.41
- Binding value (FACS fluorescence intensity) [13]: 1940

B11: CAR1a (CAR with Ab10 scFv) (protein)
chain: DIVMTQSPDSLAVSLGERATISCKSSQSLLNSGNQKNYLTWYQQKPGQPPKLLIYWASTRESGVPDRFSGSGSGTDFTLTISSLQAEDVAVYYCQNDYFYPFTFGQGTKLEIKGGGGSGGGGSGGGGSQVQLVQSGAEVKKPGSSVKVSCKASGYAFSNYLIEWVKQAPGQGLEWIGLINPGSGGTNYNEKFKGKATITADKSTSTAYMELSSLRSEDTAVYYCARVYYGNSFAYWGQGTLVTVSSTTTPAPRPPTPAPTIASQPLSLRPEACRPAAGGAVHTRGLDFACDIYIWAPLAGTCGVLLLSLVITLYCKRGRKKLLYIFKQPFMRPVQTTQEEDGCSCRFPEEEEGGCELRVKFSRSADAPAYKQGQNQLYNELNLGRREEYDVLDKRRGRDPEMGGKPRRKNPQEGLYNELQKDKMAEAYSEIGMKGERRRGKGHDGLYQGLSTATKDTYDALHMQALPPR
- specific killing rate of target cells, %, CART1a, 1:1 [1]: 19.1%
- specific killing rate of target cells, %, CART1a, 3:1 [1]: 18.3%
- specific killing rate of target cells, %, CART1a, 10:1 [1]: 32.2%
- specific killing rate of target cells, %, CART1a, 20:1 [1]: 34.8%
- specific killing rate of target cells, %, CART3a, 1:1 [1]: 3.9%
- specific killing rate of target cells, %, CART3a, 3:1 [1]: 3.1%
- specific killing rate of target cells, %, CART3a, 10:1 [1]: 21.8%
- specific killing rate of target cells, %, CART3a, 20:1 [1]: 24.3%
- specific killing rate of target cells, %, CART3ab10, 1:1 [1]: 0%
- specific killing rate of target cells, %, CART3ab10, 3:1 [1]: 0%
- specific killing rate of target cells, %, CART3ab10, 10:1 [1]: 12.2%
- specific killing rate of target cells, %, CART3ab10, 20:1 [1]: 21.2%
- specific killing rate of target cells, %, CART4a, 1:1 [1]: 0%
- specific killing rate of target cells, %, CART4a, 3:1 [1]: 1.2%
- specific killing rate of target cells, %, CART4a, 10:1 [1]: 8.8%
- specific killing rate of target cells, %, CART4a, 20:1 [1]: 19.8%
